Laboratory results published in publication PMC2821881.

Target: phosphorylated microtubule-associated protein (pMAP) labelled by the 12E8 antibody (chick (endogenous in primary chick neurons))
Assay: FRET or BRET

FRET efficiency: 41%
Substance: human cofilin-GFP (from UniProt P23528 1-166) (natural protein)
